Here are results for 36 molecules from paper PMC10786891, “Massively parallel profiling of RNA-targeting CRISPR-Cas13d”.

What is called Kd is a measure of binding affinity in units of concentration. High values mean lower affinity, low ones higher affinity.

Where a chain is given by its changes, count along the chain named. Numbers in names are those of the source.

Sequences and labels used below:
T1: EsCas13d, nuclease-dead (Eubacterium siraeum, UniProt B0MS50, R295A;H300A;R849A;H854A)
T1 sequence: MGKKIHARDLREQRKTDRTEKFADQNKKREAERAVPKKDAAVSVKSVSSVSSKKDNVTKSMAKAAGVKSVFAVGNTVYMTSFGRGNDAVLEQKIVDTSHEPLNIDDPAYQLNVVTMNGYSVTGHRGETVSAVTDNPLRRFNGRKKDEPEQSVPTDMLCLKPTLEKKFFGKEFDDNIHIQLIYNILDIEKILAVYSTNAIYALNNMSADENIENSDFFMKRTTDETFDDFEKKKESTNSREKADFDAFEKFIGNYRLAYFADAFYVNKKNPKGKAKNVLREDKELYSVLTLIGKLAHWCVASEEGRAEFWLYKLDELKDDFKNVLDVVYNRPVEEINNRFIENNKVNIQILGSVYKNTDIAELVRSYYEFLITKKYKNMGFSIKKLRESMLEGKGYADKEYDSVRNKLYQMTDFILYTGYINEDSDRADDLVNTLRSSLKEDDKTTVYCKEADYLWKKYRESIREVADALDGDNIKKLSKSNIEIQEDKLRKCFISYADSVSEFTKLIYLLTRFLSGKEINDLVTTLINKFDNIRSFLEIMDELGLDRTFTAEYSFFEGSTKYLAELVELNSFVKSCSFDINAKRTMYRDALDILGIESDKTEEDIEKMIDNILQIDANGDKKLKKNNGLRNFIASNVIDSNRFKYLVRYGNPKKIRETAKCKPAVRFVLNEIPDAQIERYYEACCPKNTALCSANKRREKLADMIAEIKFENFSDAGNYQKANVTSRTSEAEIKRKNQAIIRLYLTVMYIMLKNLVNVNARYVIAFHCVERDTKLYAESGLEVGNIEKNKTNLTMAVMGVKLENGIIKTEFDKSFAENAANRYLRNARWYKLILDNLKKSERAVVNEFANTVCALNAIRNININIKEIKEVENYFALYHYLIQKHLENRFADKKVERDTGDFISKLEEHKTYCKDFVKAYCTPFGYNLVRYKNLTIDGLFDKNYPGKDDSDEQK

B1: target 1 A1C,A14G (mixed)
RNA 1: CACCCGUGCAAAAAUGCAGGGGUCUAAAACUGAGCGGAUAACCUCUCUAUGG
RNA 2: GGGAAUGGAUCCACAUCUACGAAUUCGUACCAUAGAGGGGUUAUCCGCUCCCCGAGAUCGGAAGAGCACACGU
B2: target 1 insA 3' of 8,insU 3' of 2 (mixed)
RNA 1: B1 RNA 1
RNA 2: GGGAAUGGAUCCACAUCUACGAAUUCGUACCAUAGAGAGGUUAUACCGCUCUACCGAGAUCGGAAGAGCACACGU
B3: target 1 C4G,C7U (mixed)
RNA 1: B1 RNA 1
RNA 2: B1 RNA 2 with G38A, C45U, C48G, C51A
B4: target 2 MT 5'PFS GGA 3'PFS AGG (mixed)
RNA 1: CACCCGUGCAAAAUUGCAGGGGUCUAAAACCUUCUCCAAAUUGUUUCAUCCU
RNA 2: GGGAAUGGAUCCACAUCUACGAAUUCGGAAGGAUGAAACAAUUUGGAGAAGAGGAGAUCGGAAGAGCACACGU
B5: target 2 MT 5'PFS GGU 3'PFS AGC (mixed)
RNA 1: B4 RNA 1
RNA 2: B4 RNA 2 with A29U, G54C
B6: target 2 MT 5'PFS UUG 3'PFS UUA (mixed)
RNA 1: B4 RNA 1
RNA 2: B4 RNA 2 with G27U, G28U, A29G, A52U, G53U, G54A
B7: target 2 MT 5'PFS GGU 3'PFS AGG (mixed)
RNA 1: B4 RNA 1
RNA 2: B4 RNA 2 with A29U
B8: target 2 MT 5'PFS GUA 3'PFS UAG (mixed)
RNA 1: B4 RNA 1
RNA 2: B4 RNA 2 with G28U, A52U, G53A
B9: target 2 MT 5'PFS AGG 3'PFS AUU (mixed)
RNA 1: B4 RNA 1
RNA 2: B4 RNA 2 with G27A, A29G, G53U, G54U
B10: target 2 MT 5'PFS UAC 3'PFS UUA (mixed)
RNA 1: B4 RNA 1
RNA 2: B4 RNA 2 with G27U, G28A, A29C, A52U, G53U, G54A
B11: target 2 MT 5'PFS GAU 3'PFS UUU (mixed)
RNA 1: B4 RNA 1
RNA 2: B4 RNA 2 with G28A, A29U, A52U, G53U, G54U
B12: target 2 MT 5'PFS UGA 3'PFS UUC (mixed)
RNA 1: B4 RNA 1
RNA 2: B4 RNA 2 with G27U, A52U, G53U, G54C
B13: target 2 MT 5'PFS UAC 3'PFS UUG (mixed)
RNA 1: B4 RNA 1
RNA 2: B4 RNA 2 with G27U, G28A, A29C, A52U, G53U
B14: target 2 MT 5'PFS GUU 3'PFS UGU (mixed)
RNA 1: B4 RNA 1
RNA 2: B4 RNA 2 with G28U, A29U, A52U, G54U
B15: target 2 MT 5'PFS AAA 3'PFS AGG (mixed)
RNA 1: B4 RNA 1
RNA 2: B4 RNA 2 with G27A, G28A
B16: target 2 MT 5'PFS GUA 3'PFS UAC (mixed)
RNA 1: B4 RNA 1
RNA 2: B4 RNA 2 with G28U, A52U, G53A, G54C
B17: target 2 MT 5'PFS UAC 3'PFS UUU (mixed)
RNA 1: B4 RNA 1
RNA 2: B4 RNA 2 with G27U, G28A, A29C, A52U, G53U, G54U
B18: target 2 MT 5'PFS GGA 3'PFS AGA (mixed)
RNA 1: B4 RNA 1
RNA 2: B4 RNA 2 with G54A
B19: target 2 MT 5'PFS AGG 3'PFS CGA (mixed)
RNA 1: B4 RNA 1
RNA 2: B4 RNA 2 with G27A, A29G, A52C, G54A
B20: target 2 MT 5'PFS AAA 3'PFS AGC (mixed)
RNA 1: B4 RNA 1
RNA 2: B4 RNA 2 with G27A, G28A, G54C
B21: target 2 MT 5'PFS UUU 3'PFS CAC (mixed)
RNA 1: B4 RNA 1
RNA 2: B4 RNA 2 with G27U, G28U, A29U, A52C, G53A, G54C
B22: target 2 MT 5'PFS UUG 3'PFS AAU (mixed)
RNA 1: B4 RNA 1
RNA 2: B4 RNA 2 with G27U, G28U, A29G, G53A, G54U
B23: target 2 MT 5'PFS UUG 3'PFS AAC (mixed)
RNA 1: B4 RNA 1
RNA 2: B4 RNA 2 with G27U, G28U, A29G, G53A, G54C
B24: target 2 MT 5'PFS UUU 3'PFS CAU (mixed)
RNA 1: B4 RNA 1
RNA 2: B4 RNA 2 with G27U, G28U, A29U, A52C, G53A, G54U
B25: target 2 MT 5'PFS UUG 3'PFS AAA (mixed)
RNA 1: B4 RNA 1
RNA 2: B4 RNA 2 with G27U, G28U, A29G, G53A, G54A
B26: target 2 MT 5'PFS AAC 3'PFS CGG (mixed)
RNA 1: B4 RNA 1
RNA 2: B4 RNA 2 with G27A, G28A, A29C, A52C
B27: target 2 MT 5'PFS UUG 3'PFS AAG (mixed)
RNA 1: B4 RNA 1
RNA 2: B4 RNA 2 with G27U, G28U, A29G, G53A
B28: target 2 MT 5'PFS UGA 3'PFS UUA (mixed)
RNA 1: B4 RNA 1
RNA 2: B4 RNA 2 with G27U, A52U, G53U, G54A
B29: target 2 MT 5'PFS GUA 3'PFS UAA (mixed)
RNA 1: B4 RNA 1
RNA 2: B4 RNA 2 with G28U, A52U, G53A, G54A
B30: target 2 MT 5'PFS UUU 3'PFS CAA (mixed)
RNA 1: B4 RNA 1
RNA 2: B4 RNA 2 with G27U, G28U, A29U, A52C, G53A, G54A
B31: target 2 MT 5'PFS GGU 3'PFS AGA (mixed)
RNA 1: B4 RNA 1
RNA 2: B4 RNA 2 with A29U, G54A
B32: target 2 MT 5'PFS AAC 3'PFS CGC (mixed)
RNA 1: B4 RNA 1
RNA 2: B4 RNA 2 with G27A, G28A, A29C, A52C, G54C
B33: target 2 MT 5'PFS GGC 3'PFS AAU (mixed)
RNA 1: B4 RNA 1
RNA 2: B4 RNA 2 with A29C, G53A, G54U
B34: target 2 MT 5'PFS UCU 3'PFS AGC (mixed)
RNA 1: B4 RNA 1
RNA 2: B4 RNA 2 with G27U, G28C, A29U, G54C
B35: target 2 MT 5'PFS GGA 3'PFS AGC (mixed)
RNA 1: B4 RNA 1
RNA 2: B4 RNA 2 with G54C
B36: target 2 MT 5'PFS UUU 3'PFS CAG (mixed)
RNA 1: B4 RNA 1
RNA 2: B4 RNA 2 with G27U, G28U, A29U, A52C, G53A

This data set deals with T1, EsCas13d, nuclease-dead. The data set is described as follows: crRNA (strand 1, pre-loaded); Mg2+; 40 mM Tris-HCl pH 7.5, 150 mM NaCl, 6 mM MgCl2, 1 mM DTT, 0.1% Tween-20, 0.2 mg/ml BSA; 25 C; 10 min per concentration, then washed. Conditions: tags: His6-TwinStrep-SUMO cleaved; N-terminal SNAP kept (SNAP-Surface 488); label: 3' end held by stalled T7 RNA polymerase.
As for B1, binding was put at a Kd of 25 ± 4 nM.

The molecule B2 had a Kd of 22.5 ± 1.4 nM.

B3 yielded a dissociation constant Kd of 3.78 ± 0.31 nM.

B4 showed a Kd of 8.4 ± 0.6 nM.

In turn, B5 gave a Kd of 13.8 ± 1.9 nM.

B6 gave an equilibrium dissociation constant (Kd) of 29 ± 7 nM.

In turn, B7 had a Kd of 14.4 ± 1.3 nM. Compared with the last molecule, the Kd is about 2-fold lower.

Molecule B8 yielded a Kd of 11 ± 1.8 nM.

B9 showed a Kd of 4.8 ± 0.8 nM.

In turn, B10 yielded a Kd of 11.1 ± 2.3 nM. This Kd is about 2.3-fold higher than that of the molecule before.

The molecule B11 yielded a Kd of 47 ± 13 nM. Compared with the last molecule, the Kd is about 4.2-fold higher.

The molecule B12 displayed a Kd of 26 ± 7 nM. Compared with the last molecule, the Kd is about 1.8-fold lower.

B13 had a Kd of 8 ± 1.4 nM.

As to B14, the dissociation constant (Kd) was 21 ± 2.3 nM.

As for B15, binding was put at a Kd of 4.7 ± 0.9 nM.

Take B16: the Kd was 7.7 ± 0.7 nM.

The molecule B17 gave an equilibrium dissociation constant (Kd) of 11.9 ± 1.9 nM.

In turn, B18 registered a Kd of 8.7 ± 1.1 nM.

The molecule B19 registered a Kd of 4.5 ± 0.5 nM.

B20 came in with a Kd of 4.2 ± 1.5 nM.

Molecule B21 displayed a Kd of 7.5 ± 1 nM.

As for B22, the Kd is 9.8 ± 1.2 nM.

As to B23, the equilibrium dissociation constant (Kd) came to 9.8 ± 1.2 nM.

As for B24, the equilibrium dissociation constant (Kd) was 6.8 ± 0.8 nM. This Kd and that of the molecule before are within 1.5-fold of each other.

Molecule B25 gave a dissociation constant (Kd) of 6.7 ± 0.6 nM.

The molecule B26 showed a Kd of 3.2 ± 0.5 nM. Compared with the last molecule, the Kd is about 2.1-fold lower.

For B27, binding was characterised by a dissociation constant (Kd) of 9.6 ± 0.7 nM. This Kd is about 3-fold higher than that of the molecule before.

For the molecule B28, the Kd came to 10.7 ± 1.9 nM.

On to B29, for which binding was characterised by a dissociation constant (Kd) of 5.5 ± 0.6 nM. This Kd is about 1.9-fold lower than that of the molecule before.

Regarding B30, the equilibrium dissociation constant (Kd) amounted to 7.6 ± 1 nM.

B31: binding was put at a Kd of 10.6 ± 1.5 nM.

In the case of B32, binding was put at a Kd of 4.7 ± 1.1 nM. Against the preceding molecule, the Kd is about 2.3-fold lower.

With B33, the Kd is 8.5 ± 0.9 nM.

B34 returned a Kd of 11 ± 2.3 nM.

With B35, the Kd came out at 7.3 ± 0.7 nM.

For B36, binding was put at a Kd of 5 ± 0.4 nM. This Kd and that of the molecule before are within 1.5-fold of each other.
